Assay results published in publication PMC12691643.

How the values were obtained:
Assay in all cases: affinity purification with mass spectrometry; HA-tagged TgWIP variants pulled down by the HA tag from lysates of DC2.4 cells infected 4 h at MOI 7; host partners by mass spectrometry; values are negative fold changes in peptide counts of the mutant immunoprecipitations relative to TgWIP^WT
[1] = target: TgWIP^(PRR2 mut), HA-tagged (Toxoplasma gondii)
[2] = target: TgWIP^(PRR3 mut), HA-tagged (Toxoplasma gondii)
[3] = target: TgWIP^(WIRS mut), HA-tagged (Toxoplasma gondii)
[4] = target: TgWIP^Y150A/Y199A, HA-tagged (Toxoplasma gondii)

B1: Abi3, endogenous in murine DC2.4 cells (natural protein)
chain: MAELQQLQQLQEFDIPTGREALRGNHSALLRVANYCEDNYLQATDKRKALEETMAFTTQALASVAYQVGNLAGHTLRMLDLQGAALRQVEAKMSTLGQMVNMHMEKVARREIGTLATVVRLPSNQKVIPPESLPSLTPYHRKPLNFACLDDIGHGVKDLSTQLSRTGTLSRKSIKAPATPVSATLGRPPRIPEPVQLPAVPDGKLSAASSASSLASAGSAEGASGIPQSKGQVAPATPPPPPVAPVTPPPPPLSAEVFLPPPPLEVSQPPLEAELPLPPPPALEGDELGLLPPPPPGFGPDEPSWVPASYLEKVVTLYPYTRQKDNELSFSEGTVICVTRRYSDGWCEGVSSEGTGFFPGNYVEPSC
Binder B1 has a negative fold change in peptide counts relative to TgWIP^WT [1] of 3 fold, a negative fold change in peptide counts relative to TgWIP^WT [2] of 7 fold and a negative fold change in peptide counts relative to TgWIP^WT [3] of 1 fold. The negative fold change in peptide counts relative to TgWIP^WT [4] was 1 fold.
